Assay results taken from the supplement of paper PMC9170038.

System: K4 kissing-loop RNA reporter
Test: apparent KD of K4 kissing-loop reporter; higher = weaker reporter binding
Settings: Eterna round: R107
Method: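 RNA-MaP round R107: designed RNA switches with theophylline, tryptophan, arginine or FMN aptamers are transcribed on-chip within common flanks. They are titrated with a labelled K4 kissing-loop RNA reporter in RNA-MaP buffer (100 mM Tris pH 7.5, 80 mM KCl, 4 mM MgCl2), without ligand or with the indicated ligand. Median apparent KD per design.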

[1] = input ligand: theophylline 20 uM
[2] = input ligand: tryptophan 2.4 mM
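Further: bound reporter read as fluorescence of individual clusters on recovered sequencing chips by microscopy, with normalized cluster intensities fitted with a binding model.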

Sequence: GAAGGUCAAAGACCUUCGUGCACACCUGAUACCAGUCGCGAAAGCGACCCUUGGCAGCAGGGUAGUGAUGUUGCCAGUGCACAAA [#14 K4 Theophylline A Same State]
- apparent KD of K4 kissing-loop reporter (input ligand: FMN 200 uM): 865 nM
- apparent KD of K4 kissing-loop reporter (input ligand: arginine 13.2 mM): 735 nM
- apparent KD of K4 kissing-loop reporter (input ligand: none): 797 nM
- apparent KD of K4 kissing-loop reporter [1]: 595 nM
- apparent KD of K4 kissing-loop reporter [2]: 732 nM

Sequence: GAAUUUGCCGAUCAAAGUGAUGUUUUGGAUACCAGCCAUCAAGCUGGCCCUUGGCAGCCAACGUCGGCUGGCGACCGUGCGGACU [theeternabot_exclusion_KL_Theo_A_50]
- apparent KD of K4 kissing-loop reporter (input ligand: FMN 200 uM): 383 nM
- apparent KD of K4 kissing-loop reporter (input ligand: arginine 13.2 mM): 253 nM
- apparent KD of K4 kissing-loop reporter (input ligand: none): 347 nM
- apparent KD of K4 kissing-loop reporter [1]: 310 nM
- apparent KD of K4 kissing-loop reporter [2]: 285 nM

Sequence: GACACUCGGUGAUAAUAACCGUUACGCGAUACCAGCGUAACAGUACGCCCUUGGCAGCGCAGUGAUGUUGCGUGCCGAGUGUGAA [Theo A Ex Mod of Esbiceve]
- apparent KD of K4 kissing-loop reporter (input ligand: FMN 200 uM): 180 nM
- apparent KD of K4 kissing-loop reporter (input ligand: arginine 13.2 mM): 170 nM
- apparent KD of K4 kissing-loop reporter (input ligand: none): 172 nM
- apparent KD of K4 kissing-loop reporter [1]: 170 nM
- apparent KD of K4 kissing-loop reporter [2]: 163 nM

Sequence: GACAUACCUAUGGAGGGCCGAUCGAACAAACGAGGACCGGUACGGCCGCCACUCGUGGGCAGUGAUGUUGACCCUGGGAGGUAAG
- apparent KD of K4 kissing-loop reporter (input ligand: FMN 200 uM): 373 nM
- apparent KD of K4 kissing-loop reporter (input ligand: arginine 13.2 mM): 410 nM
- apparent KD of K4 kissing-loop reporter (input ligand: none): 544 nM
- apparent KD of K4 kissing-loop reporter [1]: 236 nM
- apparent KD of K4 kissing-loop reporter [2]: 598 nM

Sequence: GAGAAUCUCACGGCCGCCACUCACCUGUUAAUUGACAUCGACGGCCUCGACCAGUGAUGUUGUGUGAGGACCGGGUGUCUCGUGU [theeternabot_exclusion_KL_Trp_B_32]
- apparent KD of K4 kissing-loop reporter (input ligand: FMN 200 uM): 647 nM
- apparent KD of K4 kissing-loop reporter (input ligand: arginine 13.2 mM): 519 nM
- apparent KD of K4 kissing-loop reporter (input ligand: none): 702 nM
- apparent KD of K4 kissing-loop reporter [1]: 562 nM
- apparent KD of K4 kissing-loop reporter [2]: 423 nM

Sequence: GAGGUUUACGUAGGAUAUCGAUAAUGAGUAAAUGGAGUGAUGUUCCGAAAUUGAAUAAGAGAUGAGCGAGAAGGGCGGAUUAAGC [FMN B Same State; Euporia Solution]
- apparent KD of K4 kissing-loop reporter (input ligand: FMN 200 uM): 39.1 nM
- apparent KD of K4 kissing-loop reporter (input ligand: arginine 13.2 mM): 41.4 nM
- apparent KD of K4 kissing-loop reporter (input ligand: none): 37.8 nM
- apparent KD of K4 kissing-loop reporter [1]: 66.5 nM
- apparent KD of K4 kissing-loop reporter [2]: 43.4 nM

Sequence: GAGGUUUACGUAGGAUAUCGGUAAUGAGUAGAUGGAGUGAUGUUCCGAAAUUGAAUAGGAGAUGGGCGAGAAGGGCGGAUUAAGC [whbob_SS_FMNB__2th204]
- apparent KD of K4 kissing-loop reporter (input ligand: FMN 200 uM): 82.1 nM
- apparent KD of K4 kissing-loop reporter (input ligand: arginine 13.2 mM): 91.6 nM
- apparent KD of K4 kissing-loop reporter (input ligand: none): 77.4 nM
- apparent KD of K4 kissing-loop reporter [1]: 110 nM
- apparent KD of K4 kissing-loop reporter [2]: 58.1 nM

Sequence: GAUAAUAGAAUAGAUACCAGUCAAGACCUAGUGAUGUUAGGGAGAUAAGUAGAAUGAAUUGGCCCUUGGCAGCUAUAAUAGUAGG [Default title]
- apparent KD of K4 kissing-loop reporter (input ligand: FMN 200 uM): 92.4 nM
- apparent KD of K4 kissing-loop reporter (input ligand: arginine 13.2 mM): 106 nM
- apparent KD of K4 kissing-loop reporter (input ligand: none): 80.5 nM
- apparent KD of K4 kissing-loop reporter [1]: 129 nM
- apparent KD of K4 kissing-loop reporter [2]: 73.4 nM

Sequence: GAUAAUAGCACGGCCGCCACUGAAAAGCCGUGCUAUACGAGUGAUGUUCGUAAUUAUACGGGAUUCAGGACCGGGUGCAACGGUA [Tryp B SS t1]
- apparent KD of K4 kissing-loop reporter (input ligand: FMN 200 uM): 122 nM
- apparent KD of K4 kissing-loop reporter (input ligand: arginine 13.2 mM): 115 nM
- apparent KD of K4 kissing-loop reporter (input ligand: none): 139 nM
- apparent KD of K4 kissing-loop reporter [1]: 158 nM
- apparent KD of K4 kissing-loop reporter [2]: 98.1 nM

Sequence: GAUAAUUACGUAGGAUAUCCAUAUCCGCGGUCUUGAUGGAUUUUUACGAUCCAGUGAUGUUGGAUUGGAGAAGGACGGAGGCAAA [Arquedis]
- apparent KD of K4 kissing-loop reporter (input ligand: FMN 200 uM): 289 nM
- apparent KD of K4 kissing-loop reporter (input ligand: arginine 13.2 mM): 392 nM
- apparent KD of K4 kissing-loop reporter (input ligand: none): 403 nM
- apparent KD of K4 kissing-loop reporter [1]: 435 nM
- apparent KD of K4 kissing-loop reporter [2]: 362 nM

Sequence: GAUACACUUUCAGGUAUCCAGUGACUGGAUACCAGCAUGGAAACAUGCCCUUGGCAGCCAGAACUGGAAGUGAUGUUUCCAGUAA [Design7]
- apparent KD of K4 kissing-loop reporter (input ligand: FMN 200 uM): 215 nM
- apparent KD of K4 kissing-loop reporter (input ligand: arginine 13.2 mM): 166 nM
- apparent KD of K4 kissing-loop reporter (input ligand: none): 195 nM
- apparent KD of K4 kissing-loop reporter [1]: 214 nM
- apparent KD of K4 kissing-loop reporter [2]: 199 nM

Sequence: GAUCGAUGUCAGGAUACCAGCGGAAUCGUCGGAGACUCGAGUGGAGUGAUGUUCCCAGCACGCCCUUGGCAGCCUUGUUUAAGAU [theeternabot_sameState_KL_Theo_B_19]
- apparent KD of K4 kissing-loop reporter (input ligand: FMN 200 uM): 312 nM
- apparent KD of K4 kissing-loop reporter (input ligand: arginine 13.2 mM): 199 nM
- apparent KD of K4 kissing-loop reporter (input ligand: none): 318 nM
- apparent KD of K4 kissing-loop reporter [1]: 404 nM
- apparent KD of K4 kissing-loop reporter [2]: 310 nM

Sequence: GAUCUGAACGAAAGUUCGGAUCAGUCCGAUACCAGUAUGGAUUCAUACCCUUGGCAGCGGUUAUCUGCUAUGGAGUGAUGUUCCU [Theophylline A K4 12]
- apparent KD of K4 kissing-loop reporter (input ligand: FMN 200 uM): 363 nM
- apparent KD of K4 kissing-loop reporter (input ligand: arginine 13.2 mM): 332 nM
- apparent KD of K4 kissing-loop reporter (input ligand: none): 410 nM
- apparent KD of K4 kissing-loop reporter [1]: 447 nM
- apparent KD of K4 kissing-loop reporter [2]: 227 nM

Sequence: GAUGGCAUGCGAGGAUAUUGUACGGAGUGAUGUUCCCAUUAUCCAGGUAUUCGAUUGACGAGUAUCCAAGAAGGCGCAUGCCAUC
- apparent KD of K4 kissing-loop reporter (input ligand: FMN 200 uM): 248 nM
- apparent KD of K4 kissing-loop reporter (input ligand: arginine 13.2 mM): 121 nM
- apparent KD of K4 kissing-loop reporter (input ligand: none): 136 nM
- apparent KD of K4 kissing-loop reporter [1]: 115 nM
- apparent KD of K4 kissing-loop reporter [2]: 138 nM

Sequence: GAUUGUGAUGGAAACAUCGCAAUCUCUGAAGGAGCGCGUGAAAACGCAGGUAGGUCGCAGGACGACAAAGACAGUGAUGUUGUCG [Ex Arginine A K4 2]
- apparent KD of K4 kissing-loop reporter (input ligand: FMN 200 uM): 446 nM
- apparent KD of K4 kissing-loop reporter (input ligand: arginine 13.2 mM): 424 nM
- apparent KD of K4 kissing-loop reporter (input ligand: none): 554 nM
- apparent KD of K4 kissing-loop reporter [1]: 504 nM
- apparent KD of K4 kissing-loop reporter [2]: 416 nM

Sequence: GAUUGUGAUGGAAACAUCGCAAUCUCUGAAGGAGCGCGUGAAAACGCAGGUAGGUCGCAGGACGACUUUGACAGUGAUGUUGUCG [Ex Arginine A K4 4]
- apparent KD of K4 kissing-loop reporter (input ligand: FMN 200 uM): 186 nM
- apparent KD of K4 kissing-loop reporter (input ligand: arginine 13.2 mM): 223 nM
- apparent KD of K4 kissing-loop reporter (input ligand: none): 201 nM
- apparent KD of K4 kissing-loop reporter [1]: 216 nM
- apparent KD of K4 kissing-loop reporter [2]: 180 nM

Sequence: GCAAAACGCAGUGAUGUUGCGAUCUCGGAAGGAGCGCGUGAAAACGCAGGUAGGUCGCCGAGUCAGUGAGUAUCUCGCUGUUUGC [Arginine A K4 19]
- apparent KD of K4 kissing-loop reporter (input ligand: FMN 200 uM): 383 nM
- apparent KD of K4 kissing-loop reporter (input ligand: arginine 13.2 mM): 352 nM
- apparent KD of K4 kissing-loop reporter (input ligand: none): 489 nM
- apparent KD of K4 kissing-loop reporter [1]: 455 nM
- apparent KD of K4 kissing-loop reporter [2]: 322 nM

Sequence: GCAACAUUGGAAGGAUAUCAUUCUGAGUGAUGUUCAGGGUUCAGCUAACGAAAGUUAGUUGUACCAUGAGAAGGUCUAAUGUUGC [Omei KL FMN B SS A v4]
- apparent KD of K4 kissing-loop reporter (input ligand: FMN 200 uM): 332 nM
- apparent KD of K4 kissing-loop reporter (input ligand: arginine 13.2 mM): 646 nM
- apparent KD of K4 kissing-loop reporter (input ligand: none): 1610 nM
- apparent KD of K4 kissing-loop reporter [1]: 1220 nM
- apparent KD of K4 kissing-loop reporter [2]: 1010 nM

Sequence: GCAACAUUGGGAGGAUAUCAUUCUGAGUGAUGUUCAGGGUUCAGCUAACGAAAGUUAGUUGUACCAUGAGAAGGCCUAAUGUUGC [Omei KL FMN B SS A v2]
- apparent KD of K4 kissing-loop reporter (input ligand: FMN 200 uM): 287 nM
- apparent KD of K4 kissing-loop reporter (input ligand: arginine 13.2 mM): 769 nM
- apparent KD of K4 kissing-loop reporter (input ligand: none): 964 nM
- apparent KD of K4 kissing-loop reporter [1]: 867 nM
- apparent KD of K4 kissing-loop reporter [2]: 961 nM

Sequence: GCACGAGUGAUGUUCGUUGGCAUGCAUUCCGAGGAUAUGGGAUUAGCCAGAAGGCGGAAUCGGUCUUCGAGUGAUGUUCGAAGAU [Same State FMN A GF 13]
- apparent KD of K4 kissing-loop reporter (input ligand: FMN 200 uM): 104 nM
- apparent KD of K4 kissing-loop reporter (input ligand: arginine 13.2 mM): 87.8 nM
- apparent KD of K4 kissing-loop reporter (input ligand: none): 113 nM
- apparent KD of K4 kissing-loop reporter [1]: 87.2 nM
- apparent KD of K4 kissing-loop reporter [2]: 109 nM

Sequence: GCACUCGAAAGAGUGCCUCUCGCCAUCACGUAGGAUAUCUGGAAACAGAGAAGGAUGGCAGUGAUGUUGCUUUCGAUGGCGAGAG
- apparent KD of K4 kissing-loop reporter (input ligand: FMN 200 uM): 165 nM
- apparent KD of K4 kissing-loop reporter (input ligand: arginine 13.2 mM): 137 nM
- apparent KD of K4 kissing-loop reporter (input ligand: none): 180 nM
- apparent KD of K4 kissing-loop reporter [1]: 174 nM
- apparent KD of K4 kissing-loop reporter [2]: 188 nM

Sequence: GCAGAACGCAGUGAUGUUGCGAAAUCGGAAGGAGCGCGUGAAAACGCAGGUAGGUCGCCGACACAGGGAUUAUAUCCCUGUUUGC [Arginine A K4 17]
- apparent KD of K4 kissing-loop reporter (input ligand: FMN 200 uM): 178 nM
- apparent KD of K4 kissing-loop reporter (input ligand: arginine 13.2 mM): 169 nM
- apparent KD of K4 kissing-loop reporter (input ligand: none): 182 nM
- apparent KD of K4 kissing-loop reporter [1]: 206 nM
- apparent KD of K4 kissing-loop reporter [2]: 133 nM
